# Experimental data reported in PMC10311653 (ACS Central Science, 2023).
# Target: T1, wildtype (WT) human interleukin-1β (Homo sapiens, UniProt P01584)
# T1 construct: human interleukin-1β (hIL-1β); pET28a vector; also called WT hIL-1β; hIL-1β; source: E. coli BL21 (DE3), purified (Ni-NTA, Superdex 75 SEC)
# Assay: ELISA; antigen (100 ng) coated on the plate; scFv-mFc added in 3% skim milk in DPBST, 2 h at 37 °C; EC50
# Conditions: both partners purified
binder,measurement,value
"CL-E2-mFc (Fc fusion, mouse, as the scFv of m23; also called CL-E2-mFc fusion antibody; source: HEK 293F, transfected, purified (Protein A, Superdex 200 SEC)) VH: EVQLKESGAELMKPGASVKISCKATGYTFSSYWIEWVKQRPGHGLEWIGEILPGSGSTNYNEKFKGKATFTADISSNTAYMQLSSLTSEDSAVYYCASGGYRPSMDFWGQGTSVTVSS VL: DIVMTQSQKFMSTSVGDRVSITCKASQNVRTAVAWYQQKPGQSPKALIYLASNRHTGVPDRFTGSGSGTDFTLTITNVQSEDLADYFCLQHWNYPLTFGAGTKLELK",binding result,binds
